This note sets out measurements from article PMC12373898 (Communications Biology, 2025).

The target in the experiment is F-actin (pre-assembled, AlexaFluor-labeled) (rabbit, UniProt P68135 1-377, AlexaFluor-labeled actin added to the polymerisation). Description: TIRF microscopy in vitro reconstitution.

B1: His-GFP-Maspin-StrepII (natural protein)
chain: MDALQLANSAFAVDLFKQLCEKEPLGNVLFSPICLSTSLSLAQVGAKGDTANEIGQVLHFENVKDVPFGFQTVTSDVNKLSSFYSLKLIKRLYVDKSLNLSTEFISSTKRPYAKELETVDFKDKLEETKGQINNSIKDLTDGHFENILADNSVNDQTKILVVNAAYFVGKWMKKFSESETKECPFRVNKTDTKPVQMMNMEATFCMGNIDSINCKIIELPFQNKHLSMFILLPKDVEDESTGLEKIEKQLNSESLSQWTNPSTMANAKVKLSIPKFKVEKMIDPKACLENLGLKHIFSEDTSDFSGMSETKGVALSNVIHKVCLEITEDGGDSIEVPGARILQHKDELNADHPFIYIIRHNKTRNIIFFGKFCSP
Consider B1, for which the binding result is recorded as “binds”.
